What was measured:
[1] = biological target: His-tagged IgE-Fc (human); assay: SPR; sandwich: about 100 RU of His-tagged IgE-Fc captured on an 8D6 Fab surface, then a second 8D6 Fab injected at 30 uL/min; HBS-P
[2] = biological target: 1:1 8D6 Fab/IgE-Fc complex; assay: as above

Sequence of His-tagged IgE-Fc (human) (P01854 other isoform, or with tags, fused parts or gaps): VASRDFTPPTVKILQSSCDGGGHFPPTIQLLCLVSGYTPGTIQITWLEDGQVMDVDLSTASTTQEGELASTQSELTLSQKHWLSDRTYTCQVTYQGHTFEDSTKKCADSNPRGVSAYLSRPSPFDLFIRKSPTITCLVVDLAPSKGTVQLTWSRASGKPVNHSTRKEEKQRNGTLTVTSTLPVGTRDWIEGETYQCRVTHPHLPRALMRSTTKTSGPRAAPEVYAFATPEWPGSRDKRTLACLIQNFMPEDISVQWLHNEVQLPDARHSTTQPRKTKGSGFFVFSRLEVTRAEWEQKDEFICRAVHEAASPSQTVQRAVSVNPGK

B1: 8D6 Fab (Fab, V domains shown)
VH: QVQLQQSGAELAKPGASVMLSCKASGYTFNGYWMHWVKQRPGQDLEWIGYINPTTGHTEYNQKFKDKATLTADESSNTAYIELSSLTSDDSAVYYCARQEYRHSWFAYWGQGTLVTVSA
VL: DIVLTQSPASLAVSLGQRATISCKASQSVDYDGDTYMNWYHQKPGQPPKLLIYAASNLDSGIPARFSGSGSGTDFTLNIHPVEEEDAATYYCQQTNEDPWTFGGGTKLEIK
stoichiometry N [1]: 2 | Kd [2]: 0.06 nM | koff [2]: 6e-05 s⁻¹ | kon [2]: 1e+06 M⁻¹ s⁻¹

Source: PMC6070508
